Experimental findings from patent US20220332804A1 (CSL INNOVATION, published 2022) are described below.

Common to all, as to assay: SPR, mAb captured, C2 mutant analyte;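 further: Anti-C2 mAbs captured on goat anti-human IgG Biacore CM5 chips, alanine or serine C2 surface mutants flowed over at 37 °C, double-referenced sensorgrams fitted to a 1:1 binding model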
One assay has as its target T1, human C2 N471A (human, UniProt P06681 21-752).
T1 sequence: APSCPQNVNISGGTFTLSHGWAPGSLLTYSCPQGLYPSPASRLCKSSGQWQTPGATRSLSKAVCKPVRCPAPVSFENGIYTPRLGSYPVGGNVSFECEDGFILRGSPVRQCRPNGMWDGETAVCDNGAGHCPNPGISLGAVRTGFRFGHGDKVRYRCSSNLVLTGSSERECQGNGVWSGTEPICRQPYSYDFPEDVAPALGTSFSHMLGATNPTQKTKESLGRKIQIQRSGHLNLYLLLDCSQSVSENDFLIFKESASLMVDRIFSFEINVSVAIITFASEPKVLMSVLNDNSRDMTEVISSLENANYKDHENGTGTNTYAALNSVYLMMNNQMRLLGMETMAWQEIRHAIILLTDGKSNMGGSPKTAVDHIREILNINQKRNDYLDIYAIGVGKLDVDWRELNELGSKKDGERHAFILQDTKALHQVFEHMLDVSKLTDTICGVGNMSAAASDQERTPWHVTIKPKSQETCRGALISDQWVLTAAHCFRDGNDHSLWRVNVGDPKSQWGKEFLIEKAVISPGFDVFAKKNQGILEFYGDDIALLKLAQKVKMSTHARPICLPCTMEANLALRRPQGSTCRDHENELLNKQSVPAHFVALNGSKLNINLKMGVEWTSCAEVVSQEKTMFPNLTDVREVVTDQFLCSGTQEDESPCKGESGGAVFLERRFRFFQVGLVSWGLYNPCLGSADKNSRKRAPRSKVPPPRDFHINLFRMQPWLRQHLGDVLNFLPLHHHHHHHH

In a further assay the target is T2, human C2 G466A (human, UniProt P06681 21-752).
T2 sequence: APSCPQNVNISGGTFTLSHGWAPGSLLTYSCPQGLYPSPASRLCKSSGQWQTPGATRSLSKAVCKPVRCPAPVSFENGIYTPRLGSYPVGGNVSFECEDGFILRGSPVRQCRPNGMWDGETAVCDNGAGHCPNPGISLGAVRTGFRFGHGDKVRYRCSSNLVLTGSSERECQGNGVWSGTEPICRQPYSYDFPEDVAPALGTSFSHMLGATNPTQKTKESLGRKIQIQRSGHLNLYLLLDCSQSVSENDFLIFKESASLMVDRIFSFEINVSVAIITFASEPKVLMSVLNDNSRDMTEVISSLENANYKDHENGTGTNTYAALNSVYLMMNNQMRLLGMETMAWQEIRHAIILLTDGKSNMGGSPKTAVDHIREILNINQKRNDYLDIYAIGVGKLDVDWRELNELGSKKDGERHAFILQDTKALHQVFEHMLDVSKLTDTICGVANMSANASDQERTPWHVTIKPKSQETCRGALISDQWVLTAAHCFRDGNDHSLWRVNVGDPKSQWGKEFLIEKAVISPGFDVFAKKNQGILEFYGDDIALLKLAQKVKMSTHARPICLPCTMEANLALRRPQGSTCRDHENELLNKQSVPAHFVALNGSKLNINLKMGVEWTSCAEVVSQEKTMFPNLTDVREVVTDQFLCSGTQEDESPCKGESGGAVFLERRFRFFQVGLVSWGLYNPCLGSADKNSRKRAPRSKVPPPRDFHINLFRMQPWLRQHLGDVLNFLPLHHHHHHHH

The next assay concerns the target T3, human C2 L439A (human, UniProt P06681 21-752).
T3 sequence: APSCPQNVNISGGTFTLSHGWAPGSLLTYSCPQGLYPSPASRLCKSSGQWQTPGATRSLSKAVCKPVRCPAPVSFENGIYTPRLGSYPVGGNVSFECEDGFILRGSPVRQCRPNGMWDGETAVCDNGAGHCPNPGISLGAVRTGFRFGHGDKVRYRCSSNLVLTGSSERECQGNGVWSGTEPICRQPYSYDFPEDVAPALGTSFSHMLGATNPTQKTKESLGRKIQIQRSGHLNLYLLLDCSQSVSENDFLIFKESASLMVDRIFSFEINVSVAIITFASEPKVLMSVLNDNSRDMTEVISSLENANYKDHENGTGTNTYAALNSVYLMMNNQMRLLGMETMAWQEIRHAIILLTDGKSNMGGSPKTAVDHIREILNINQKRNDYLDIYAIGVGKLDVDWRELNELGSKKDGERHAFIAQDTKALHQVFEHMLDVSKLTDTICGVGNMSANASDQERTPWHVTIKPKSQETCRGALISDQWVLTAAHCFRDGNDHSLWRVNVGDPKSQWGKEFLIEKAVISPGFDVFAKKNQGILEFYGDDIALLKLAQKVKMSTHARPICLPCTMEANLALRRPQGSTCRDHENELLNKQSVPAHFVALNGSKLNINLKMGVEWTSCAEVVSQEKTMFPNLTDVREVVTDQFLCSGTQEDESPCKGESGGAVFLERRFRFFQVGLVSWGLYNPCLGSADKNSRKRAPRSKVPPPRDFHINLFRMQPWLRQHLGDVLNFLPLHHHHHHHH

The next assay addresses T4, human C2 R519A (human, UniProt P06681 21-752).
T4 sequence: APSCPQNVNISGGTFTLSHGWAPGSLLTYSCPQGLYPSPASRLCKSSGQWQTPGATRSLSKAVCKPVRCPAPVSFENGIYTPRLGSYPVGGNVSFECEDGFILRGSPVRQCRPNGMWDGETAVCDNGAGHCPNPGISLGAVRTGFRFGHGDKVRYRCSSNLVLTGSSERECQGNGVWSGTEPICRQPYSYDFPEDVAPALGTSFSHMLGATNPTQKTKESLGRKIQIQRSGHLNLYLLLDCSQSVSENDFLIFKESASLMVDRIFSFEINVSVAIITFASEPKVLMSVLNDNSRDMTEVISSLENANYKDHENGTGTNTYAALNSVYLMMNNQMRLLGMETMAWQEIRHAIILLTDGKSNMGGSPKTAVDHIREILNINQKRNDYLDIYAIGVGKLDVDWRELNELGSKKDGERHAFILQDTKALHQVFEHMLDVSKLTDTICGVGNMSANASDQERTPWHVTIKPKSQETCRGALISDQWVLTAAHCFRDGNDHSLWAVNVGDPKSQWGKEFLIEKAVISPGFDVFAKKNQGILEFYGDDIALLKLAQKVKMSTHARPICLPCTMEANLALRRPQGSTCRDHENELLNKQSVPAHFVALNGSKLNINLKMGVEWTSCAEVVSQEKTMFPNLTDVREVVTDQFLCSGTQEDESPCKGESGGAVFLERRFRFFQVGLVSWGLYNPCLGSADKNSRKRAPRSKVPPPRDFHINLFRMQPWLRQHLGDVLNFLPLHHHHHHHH

B1: RF16-214 (antibody, V domains shown)
VH: EVQLLESGGGLVQPGGSLRLSCAASGFTFSWYQMMWVRQAPGKGLEWVSRIYPSGGGTAYADSVKGRFTISRDNSKNTLYLQMNSLRAEDTAVYYCARDAGYGDNWGQGTLVTVSS
VL: QSALTQPPSVSVSPGQTASITCSGDKLGEKYASWYQQKAGQSPVMVIYQDRKRPSGIPERFSGSNSGNTATLTISGTQAMDEADYYCQAWDTRAVVFGGGTKLTVLG
In the case of B1, the Kd in the assay with human C2 N471A was found to be 32.8 nM; in the assay with human C2 G466A it was 144 nM; in the assay with human C2 L439A it was 1320 nM; with human C2 R519A it was 40 nM.

As usually defined, the Kd is a measure of binding affinity in units of concentration. Read a high Kd as lower affinity.
